According to doi:10.1101/2021.12.11.472236 (bioRxiv, 2021):
Several values for one entry are separate records, joined by “and”; a condition that tells them apart may be missing. Equal values may be shown once.

Experiments:
[1] = target: S2P-prefusion-stabilized spike protein from SARS-CoV-2 B.1.351 (SARS-CoV-2, B.1.351 (Beta), strain); experiment: cryo-EM structure
[2] = target: S2P-prefusion-stabilized spike protein from SARS-CoV-2 WA-1 (SARS-CoV-2, WA-1, UniProt P0DTC2, stabilised); experiment: cryo-EM structure

Binder | stoichiometry N [1] | binding result [2]
10-28 Fab (Fab, V domains shown) VH: QVQLVESGGGVVQPGRSLRLSCAASGFTFSSYDMHWVRQAPGKGLEWVAVISYDGSSKFYAESVKGRFTISRDNSKNTLYLQMNSLRAEETAVYYCVKDGEQLVPLFDYWGQGTLVTVSS VL: not shown | 3 Fabs per spike | binds
11-11 Fab (Fab, V domains shown) VH: QVQLQESGPGLVKPSQTLSLTCTVSGGSISSGGYYWSWIRQHPGKGLEWIGYIYYSGSTYYNPSLKSRVTISVDTSKNQFSLKVSSVTAADTAVYYCASSNYYDGSGYNLLESYGMDVWGQGTSVTVSS VL: QSVLTQPPSVSGAPGQRVTISCTGSSSNIGAGYDVHWYQQLPGTAPKLLIYGNSNRPSGVPDRFSGSRSGTSASLAITGLQAEDEADYYCQSYDSSLSGSWVFGGGTKVTVL | 3 Fabs per spike and 2 Fabs per spike | binds
10-40 Fab (Fab, V domains shown) VH: QLQLQESGPGLVKPSETLSLTCTVSGGSISSSNFYWGWIRQPPGKGLEWIASITYSGRTFYNPSLKSRVAISVDTSKNQFSLKLSSVTAADTAVYYCARTFPSYYDRSGYHYLNYGMDVWGQGTTVTVSS VL: NFMLTQPHSMSESPGKTVTISCTRSSGSIASNYVQWYQQRPGSSPTTVIYEDNQRPSGVPDRFSGSIDSSSNSASLTISGLKTEDEADYYCQSYDSSSWVFGGGTKLTVL | 3 Fabs per spike | binds
